Data from patent publication US20220119534A1 (DRAGONFLY THERAPEUTICS, published 2022).
“And” between values parts separate entries of the source, which are not always exact repeats. Equal entries are not always repeated.

Key:
[1] = target: T1, mFc-hNKG2D (recombinant mFc-tagged human NKG2D dimer) (human, UniProt P26718 73-216); experiment: SPR 37C, mFc-hNKG2D captured, steady state fit
T1 construct: extracellular domain; Made in house; not shown: mouse Fc tag
T1 sequence (looked up): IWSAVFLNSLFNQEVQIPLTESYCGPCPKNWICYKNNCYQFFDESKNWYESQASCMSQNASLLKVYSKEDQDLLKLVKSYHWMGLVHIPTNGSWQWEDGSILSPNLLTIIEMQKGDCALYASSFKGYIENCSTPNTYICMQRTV

[2] = target: T2, Human CLEC12A-His (recombinant, K244 WT) (human, UniProt Q5QGZ9 65-265); experiment: SPR, two-state fit (ka1); after 4 wks 40C in CST pH 7.0
T2 construct: Made in house (Dragonfly Tx); also called hCLEC12A; hCLEC12A-His; not shown: His tag
T2 sequence: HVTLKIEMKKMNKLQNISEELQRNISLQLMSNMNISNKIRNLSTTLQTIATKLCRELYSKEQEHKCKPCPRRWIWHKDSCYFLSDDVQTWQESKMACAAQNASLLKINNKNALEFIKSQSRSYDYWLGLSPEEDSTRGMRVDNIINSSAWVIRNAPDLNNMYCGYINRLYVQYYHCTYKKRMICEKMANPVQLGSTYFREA

[3] = target: T3, Human CLEC12A expressed on cells (Ba/F3-hCLEC12A, PL21, HL60) (human, UniProt Q5QGZ9 1-265); experiment: cell-based or functional assay
T3 sequence: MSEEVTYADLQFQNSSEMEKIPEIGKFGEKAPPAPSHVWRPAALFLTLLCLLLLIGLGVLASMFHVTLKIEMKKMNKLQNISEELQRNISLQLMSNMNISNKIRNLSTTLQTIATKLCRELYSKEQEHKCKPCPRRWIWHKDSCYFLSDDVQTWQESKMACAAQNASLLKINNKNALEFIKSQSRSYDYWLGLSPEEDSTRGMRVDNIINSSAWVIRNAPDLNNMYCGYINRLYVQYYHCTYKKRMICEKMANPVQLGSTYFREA

Kd [1]: 873 nM and 894 nM and 885 nM | kon [2]: 6.31e+06 M⁻¹ s⁻¹ | EC50, NK cell induction of IFNγ and CD107a in co-culture with HL60 cells (mean of three donors) [3]: 0.05 nM
B1: AB0089 TriNKET (bispecific antibody, human IgG1, kappa)
chain: QLQLQESGPGLVKPSETLSLTCTVSGFSLTNYGLHWIRQPPGKCLEWIGVIWVGGATDYNPSLKSRVTISVDTSKNQFSLKLSSVQAADTAVYYCAKGDYGDTLDYWGQGTLVTVSSGGGGSGGGGSGGGGSGGGGSDIQMTQSPSSLSASVGDRVTITCHASQNINFWLSWYQQKPGKAPKLLIYEASNLHTGVPSRFSGSGSGTDFTLTISSLQPEDFATYYCQQSHSYPLTFGCGTKLEIKGSDKTHTCPPCPAPELLGGPSVFLFPPKPKDTLMISRTPEVTCVVVDVSHEDPEVKFNWYVDGVEVHNAKTKPREEQYNSTYRVVSVLTVLHQDWLNGKEYKCKVSNKALPAPIEKTISKAKGQPREPRVYTLPPCRDELTKNQVSLTCLVKGFYPSDIAVEWESNGQPENNYKTTPPVLVSDGSFTLYSKLTVDKSRWQQGNVFSCSVMHEALHNHYTQKSLSLSPG
heavy: EVQLVESGGGLVKPGGSLRLSCAASGFTFSSYSMNWVRQAPGKGLEWVSSISSSSSYIYYADSVKGRFTISRDNAKNSLYLQMNSLRAEDTAVYYCARGAPIGAAAGWFDPWGQGTLVTVSSASTKGPSVFPLAPSSKSTSGGTAALGCLVKDYFPEPVTVSWNSGALTSGVHTFPAVLQSSGLYSLSSVVTVPSSSLGTQTYICNVNHKPSNTKVDKKVEPKSCDKTHTCPPCPAPELLGGPSVFLFPPKPKDTLMISRTPEVTCVVVDVSHEDPEVKFNWYVDGVEVHNAKTKPREEQYNSTYRVVSVLTVLHQDWLNGKEYKCKVSNKALPAPIEKTISKAKGQPREPQVCTLPPSRDELTENQVSLTCLVKGFYPSDIAVEWESNGQPENNYKTTPPVLDSDGSFFLYSWLTVDKSRWQQGNVFSCSVMHEALHNHYTQKSLSLSPG
light: DIQMTQSPSSVSASVGDRVTITCRASQGISSWLAWYQQKPGKAPKLLIYAASSLQSGVPSRFSGSGSGTDFTLTISSLQPEDFATYYCQQGVSFPRTFGGGTKVEIKRTVAAPSVFIFPPSDEQLKSGTASVVCLLNNFYPREAKVQWKVDNALQSGNSQESVTEQDSKDSTYSLSSTLTLSKADYEKHKVYACEVTHQGLSSPVTKSFNRGEC
notes: F3' format heterodimer of three chains; human IgG1 Fc with EW-RVT and Y349C/S354C mutations; also called AB0089 Lot AB0089-002; CLEC12A TriNKET AB0089
